Experiment [1] has as its system murine dispersed islet cells. Nature of the experiment: Glucagon secretion from murine dispersed islet cells. Type of experiment: cell-based, mouse. The conditions noted are these: for Secretion of glucagon: E + Rhy (2.5 µM), Figure 1H; for Secretion of glucagon / Relative secretion of glucagon: listed as E; for Relative secretion of glucagon: Ephrin-A5 Fc (E), one value per mouse, Figure 1F. On the procedure:
(§1) Pancreata of nondiabetic C57BL/6J mice were digested using collagenase P (Roche Diagnostics, catalog 11213873001), and islets were manually picked up using a stereomicroscope (ZEISS Stemi 305). […] Isolated mouse islets or provided human islets were dispersed as described ([28]). Briefly, 100–120 islets were washed 2 times using modified HBSS, then dispersed in 600 μL Accutase (Innovative Cell Technologies, catalog AT-104) by gently pipetting up and down for 7 minutes at 37°C. […] Following refreshing of KRBH, cells were dispensed in 8 microfuge tubes (2,000 cells/tube) and treated with WCDD301, preclustered Ephrin-A5 Fc, or preclustered Fc in the presence or absence of the competitive inhibitor of EphA4 receptor, rhyncophylline ([60]) (MilliporeSigma, catalog SML2345). In the presence or absence of these effectors, secretion assay was performed sequentially as shown in Supplemental Table 5. […] Preclustering of Ephrin-A5 Fc was done by mixing Ephrin-A5 Fc or Fc alone (BioLegend, catalog 790102) with anti-Fc antibody (Invitrogen, catalog A16086) (1:10 molar ratio) 20 minutes before treatment ([62]). […] Shedding of cleaved EphA4 was measured from the cell culture medium. Experiments were performed by dispersion of 200 islets, and EphA4 levels in media were measured by EphA4 ELISA (ABclonal, catalog RK06572).

For experiment [2], the system named is murine dispersed islet cells. Nature of the experiment: Insulin secretion from murine dispersed islet cells. In kind it is cell-based, mouse. Particulars: Ephrin-A5 Fc (E), one value per mouse, Figure 1G, listed as E. On the procedure: as §1
The subject of experiment [3] is human donor dispersed islet cells. Briefly: Somatostatin secretion from non-diabetic human donor dispersed islet cells. In kind it is cell-based. The conditions noted are these: Ephrin-A5. On the procedure:
as §1
(§2) The Integrated Islet Distribution Program provided us human donor islets with their characteristics (Supplemental Table 6). Islets were centrifuged at 500g for 3 minutes, resuspended in CMRL 1066 medium (Gibco, catalog 1150-037) containing 11 mM glucose, and rested in an incubator overnight.
(§3) For the hormone secretion assay, islets or dispersed islet cells were adapted in KRBH buffer containing 11 mM glucose for 1 hour. Then, after 2 washes in HBSS containing 11 mM glucose, islets or cells were treated in the following sequential order in the presence or absence of WCDD301: incubation in KRBH (1 mM glucose, 30 minutes) followed by medium collection, incubation in KRBH (11 mM glucose, 30 minutes) followed by medium collection.

In experiment [4] the test system is isolated islets of donors with T1D. Nature of the experiment: Glucagon secretion from isolated islets of donors with T1D. Type of experiment: cell-based, human. Particulars: isolated islets, T1D donors, one value per donor, Figure 2G, listed as E. On the procedure:
as §2, §3

In experiment [5] the test system is dispersed islet cells of donors with T1D. Nature of the experiment: Glucagon secretion from dispersed islet cells of donors with T1D. Type of experiment: cell-based, human. The conditions noted are these: dispersed islet cells, T1D donors, one value per donor, Figure 2H, listed as E. On the procedure:
as §1, §2, §3

Experiment [6] has as its system isolated islets of donors with T1D. Briefly: Insulin secretion from isolated islets of donors with T1D.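 Further: insulin concentration in collected medium by Lumit immunoassay.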 In kind it is cell-based, human. The conditions noted are these: isolated islets, T1D donors, one value per donor, Figure 2I, listed as E. On the procedure:
as §2, §3

For experiment [7], the system named is dispersed islet cells of donors with T1D. Briefly: Insulin secretion from dispersed islet cells of donors with T1D.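 Further: insulin concentration in collected medium by Lumit immunoassay.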 Type of experiment: cell-based, human. The conditions noted are these: dispersed islet cells, T1D donors, one value per donor, Figure 2J. Here is the method: as §1, §2, §3
The subject of experiment [8] is human dispersed islet cells. Briefly: Immunofluorescence: F-actin intensity in glucagon+ human dispersed islet cells.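 Further: ImageJ intensity within ROI drawn around each glucagon+ cell.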 In kind it is cell-based. Particulars: human cells; individual values; Figure 3E; listed as E. Here is the method:
(§4) Coverslips were treated with WCDD301, preclustered Ephrin-A5 Fc, or preclustered Fc in the following sequential order: KRBH (11 mM glucose, 30 minutes), KRBH (1 mM glucose, 60 minutes), KRBH (1 mM glucose, 30 minutes), and KRBH (11 mM glucose, 60 minutes). After treatment, coverslips were washed once in PBS, fixed in 2% paraformaldehyde in PBS (30 minutes), and again washed in PBS. […] Following wash in PBS, coverslips were incubated in a mixture of Alexa Fluor 555 Phalloidin (Cell Signaling Technology, catalog 8953) and secondary antibodies (goat anti-rabbit Alexa Fluor 488, catalog A-21094, 1:1,000, Molecular Probes; and goat anti-mouse Alexa Fluor 633, catalog A21052, 1:1,000, Life Technologies) for 1 hour at RT. Both primary and secondary antibodies were diluted in blocking buffer containing 0.05% Tween 20. Coverslips were washed using PBS and counterstained by using DAPI (1:1,000) for 10 minutes. Following 2 washes in PBS, coverslips were mounted on glass slides using ProLong Glass Antifade Mountant (Invitrogen, catalog P36980). Images were captured using the Zeiss LSM880 microscope with a Plan-Apochromat 63× 1.4 NA objective lens by setting dual-band dichroic/filter for 405, 488, 561, and 633 nm laser excitation. For each slide, 25–30 fields of view were scanned, and in each field of view, 3–5 cells were imaged. […] Values of intensity were compared among groups using 1-way ANOVA, α = 0.05.

Experiment [9] has as its system mouse dispersed islet cells. Briefly: Immunofluorescence: F-actin intensity in glucagon+ mouse dispersed islet cells.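 Further: ImageJ intensity within ROI drawn around each glucagon+ cell.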 Type of experiment: cell-based. The conditions noted are these: mouse cells; individual values; Figure 3F; listed as E. Here is the method: as §4
For experiment [10], the system named is human dispersed islet cells. Nature of the experiment: Immunofluorescence: EphA4 intensity in glucagon+ human dispersed islet cells.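 Further: ImageJ intensity within ROI drawn around each glucagon+ cell.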 Type of experiment: cell-based. The conditions noted are these: human cells; individual values; Figure 3G; listed as E. On the procedure: as §4
The subject of experiment [11] is mouse dispersed islet cells. Briefly: Immunofluorescence: EphA4 intensity in glucagon+ mouse dispersed islet cells.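 Further: ImageJ intensity within ROI drawn around each glucagon+ cell.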 In kind it is cell-based. The conditions noted are these: mouse cells; individual values; Figure 3H; listed as E. On the procedure:
as §4

“And” between values parts separate entries of the source, which are not always exact repeats. Equal values may be shown once.

B1: Ephrin-A5 Fc: recombinant mouse Ephrin-A5 Fc; natural ligand of EphA4 receptors (protein)
chain: QDPGSKVVADRYAVYWNSSNPRFQRGDYHIDVCINDYLDVFCPHYEDSVPEDKTERYVLYMVNFDGYSACDHTSKGFKRWECNRPHSPNGPLKFSEKFQLFTPFSLGFEFRPGREYFYISSAIPDNGRRSCLKLKVFVRPTNSCMKTIGVHDRVFDVNDKVENSLEPADDTVHESAEPSRGEN
modifications: left off: Fc, end not stated, kept
notes: recombinant mouse Ephrin-A5 Fc; natural ligand of EphA4 receptors
With B1, the “Effect on arginine-stimulated glucagon secretion” value in experiment [1] (1 mM and 11 mM glucose, Arg 25 mM, 301 3 µM, E 4 µg/mL, Supplemental Figure 2) was “its effect was suppressed”. Also, the Secretion of glucagon is 0.8 and 0.85 and 0.95 and 1.05 and 1 in [1] (Glucose (1 mM)); 1.1 and 1.07 and 1.2 and 1.05 and 1.15 in experiment [1] (Glucose (11 mM)); 40.65 and 55.72 in [4] (1 mM glucose); 37.25 and 40.79 in [4] (11 mM glucose); 14.105 and 25.56 in experiment [5] (1 mM glucose); 38.15 and 32.58 in experiment [5] (11 mM glucose). For the same molecule, the “Relative secretion of glucagon” value in [1] (Glucose (1 mM)) was 0.85 and 0.95 and 1.05 and 0.7 and 0.8; in experiment [1] (Glucose (11 mM)) it was 1.01 and 0.8 and 0.9 and 0.85 and 0.94. For the same molecule, the “Relative secretion of insulin” value in experiment [2] (Glucose (1 mM)) was 0.75 and 0.2 and 0.32 and 0.45 and 0.69; in experiment [2] (Glucose (11 mM)) it was 1.02 and 1 and 0.85 and 0.8 and 0.96. In experiment [3], the “Somatostatin secretion (Supplemental Figure 4D; quantity not given)” value is 1908.4 and 2981.9 and 2200.0. Further, the Secretion of insulin in experiment [6] (1 mM glucose) was 0.075 and 0.07; in [6] (11 mM glucose), 0.11 and 0.05; in [7] (1 mM glucose), 0.06; in experiment [7] (11 mM glucose, listed as E), 0.10 and 0.05. Besides, the F-actin intensity was 9.8 and 7.6 and 4.7 and 8.3 and 7.5 and 5.1 and 5.9 and 5.2 in experiment [8]; 8.2 and 11.3 and 9.4 and 8.4 and 9.8 and 8.6 and 5.2 and 8.9 and 7.7 in experiment [9]. Also, the EphA4 intensity was 45.7 and 17.5 and 5.4 and 39.9 and 12.3 and 5.9 and 20.4 and 7.4 and 4.4 in [10]; 18.2 and 16.2 and 19.0 and 16.0 and 17.1 and 20.0 and 17.0 and 15.6 and 21.0 and 18.0 and 33.1 and 50.6 and 24.4 and 25.7 in experiment [11].

Values taken from publication PMC10906223 (JCI Insight, 2024).
